Source: paper PMC10786891, “Massively parallel profiling of RNA-targeting CRISPR-Cas13d”

T1: EsCas13d, nuclease-dead (Eubacterium siraeum, UniProt B0MS50, R295A;H300A;R849A;H854A)
T1 sequence: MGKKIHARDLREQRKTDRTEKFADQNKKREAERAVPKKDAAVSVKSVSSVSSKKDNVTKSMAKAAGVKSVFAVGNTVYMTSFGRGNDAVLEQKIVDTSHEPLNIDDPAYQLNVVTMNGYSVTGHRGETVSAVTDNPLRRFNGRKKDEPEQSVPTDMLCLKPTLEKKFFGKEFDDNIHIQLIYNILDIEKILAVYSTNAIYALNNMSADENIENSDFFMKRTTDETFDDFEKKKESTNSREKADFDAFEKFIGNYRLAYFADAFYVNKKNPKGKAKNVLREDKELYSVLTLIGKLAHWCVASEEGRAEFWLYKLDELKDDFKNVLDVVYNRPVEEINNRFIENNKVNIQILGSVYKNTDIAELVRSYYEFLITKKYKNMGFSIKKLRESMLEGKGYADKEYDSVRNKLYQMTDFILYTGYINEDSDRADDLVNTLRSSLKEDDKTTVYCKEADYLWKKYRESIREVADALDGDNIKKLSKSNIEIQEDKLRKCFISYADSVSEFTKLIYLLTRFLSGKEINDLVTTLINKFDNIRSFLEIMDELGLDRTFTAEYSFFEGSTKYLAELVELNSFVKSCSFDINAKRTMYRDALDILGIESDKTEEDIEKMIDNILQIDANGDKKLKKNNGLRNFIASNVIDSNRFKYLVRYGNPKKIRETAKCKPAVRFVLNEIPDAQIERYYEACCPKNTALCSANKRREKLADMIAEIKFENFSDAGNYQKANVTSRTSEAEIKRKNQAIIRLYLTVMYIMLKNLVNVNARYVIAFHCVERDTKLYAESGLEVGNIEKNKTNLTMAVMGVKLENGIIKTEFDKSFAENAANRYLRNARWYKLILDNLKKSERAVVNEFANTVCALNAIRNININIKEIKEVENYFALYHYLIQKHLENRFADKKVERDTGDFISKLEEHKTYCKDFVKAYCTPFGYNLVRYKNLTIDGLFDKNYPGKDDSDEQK

B1: target 1 MT 5'PFS GUA 3'PFS UGA (mixed)
RNA 1: CACCCGUGCAAAAAUGCAGGGGUCUAAAACUGAGCGGAUAACCUCUCUAUGG
RNA 2: GGGAAUGGAUCCACAUCUACGAAUUCGUACCAUAGAGAGGUUAUCCGCUCAUGAAGAUCGGAAGAGCACACGU
B2: target 1 MT 5'PFS GGC 3'PFS AAU (mixed)
RNA 1: CACCCGUGCAAAAAUGCAGGGGUCUAAAACUGAGCGGAUAACCUCUCUAUGG
RNA 2: GGGAAUGGAUCCACAUCUACGAAUUCGGCCCAUAGAGAGGUUAUCCGCUCAAAUAGAUCGGAAGAGCACACGU
B3: target 1 MT 5'PFS GGC 3'PFS AAC (mixed)
RNA 1: CACCCGUGCAAAAAUGCAGGGGUCUAAAACUGAGCGGAUAACCUCUCUAUGG
RNA 2: GGGAAUGGAUCCACAUCUACGAAUUCGGCCCAUAGAGAGGUUAUCCGCUCAAACAGAUCGGAAGAGCACACGU
B4: target 1 MT 5'PFS ACA 3'PFS UUC (mixed)
RNA 1: CACCCGUGCAAAAAUGCAGGGGUCUAAAACUGAGCGGAUAACCUCUCUAUGG
RNA 2: GGGAAUGGAUCCACAUCUACGAAUUCACACCAUAGAGAGGUUAUCCGCUCAUUCAGAUCGGAAGAGCACACGU
B5: target 1 MT 5'PFS CUU 3'PFS CUA (mixed)
RNA 1: CACCCGUGCAAAAAUGCAGGGGUCUAAAACUGAGCGGAUAACCUCUCUAUGG
RNA 2: GGGAAUGGAUCCACAUCUACGAAUUCCUUCCAUAGAGAGGUUAUCCGCUCACUAAGAUCGGAAGAGCACACGU
B6: target 1 MT 5'PFS AAG 3'PFS UGU (mixed)
RNA 1: CACCCGUGCAAAAAUGCAGGGGUCUAAAACUGAGCGGAUAACCUCUCUAUGG
RNA 2: GGGAAUGGAUCCACAUCUACGAAUUCAAGCCAUAGAGAGGUUAUCCGCUCAUGUAGAUCGGAAGAGCACACGU
B7: target 1 MT 5'PFS GGU 3'PFS CUA (mixed)
RNA 1: CACCCGUGCAAAAAUGCAGGGGUCUAAAACUGAGCGGAUAACCUCUCUAUGG
RNA 2: GGGAAUGGAUCCACAUCUACGAAUUCGGUCCAUAGAGAGGUUAUCCGCUCACUAAGAUCGGAAGAGCACACGU
B8: target 1 MT 5'PFS CUU 3'PFS CUG (mixed)
RNA 1: CACCCGUGCAAAAAUGCAGGGGUCUAAAACUGAGCGGAUAACCUCUCUAUGG
RNA 2: GGGAAUGGAUCCACAUCUACGAAUUCCUUCCAUAGAGAGGUUAUCCGCUCACUGAGAUCGGAAGAGCACACGU
B9: target 1 MT 5'PFS AGG 3'PFS AGG (mixed)
RNA 1: CACCCGUGCAAAAAUGCAGGGGUCUAAAACUGAGCGGAUAACCUCUCUAUGG
RNA 2: GGGAAUGGAUCCACAUCUACGAAUUCAGGCCAUAGAGAGGUUAUCCGCUCAAGGAGAUCGGAAGAGCACACGU
B10: target 1 MT 5'PFS GGC 3'PFS AAA (mixed)
RNA 1: CACCCGUGCAAAAAUGCAGGGGUCUAAAACUGAGCGGAUAACCUCUCUAUGG
RNA 2: GGGAAUGGAUCCACAUCUACGAAUUCGGCCCAUAGAGAGGUUAUCCGCUCAAAAAGAUCGGAAGAGCACACGU
B11: target 1 U10A,U11G (mixed)
RNA 1: CACCCGUGCAAAAAUGCAGGGGUCUAAAACUGAGCGGAUAACCUCUCUAUGG
RNA 2: GGGAAUGGAUCCACAUCUACGAAUUCGUACCAUAGAGAGGGAAUCCGCUCACCGAGAUCGGAAGAGCACACGU
B12: target 1 MT 5'PFS CCU 3'PFS ACG (mixed)
RNA 1: CACCCGUGCAAAAAUGCAGGGGUCUAAAACUGAGCGGAUAACCUCUCUAUGG
RNA 2: GGGAAUGGAUCCACAUCUACGAAUUCCCUCCAUAGAGAGGUUAUCCGCUCAACGAGAUCGGAAGAGCACACGU
B13: target 1 MT 5'PFS GUA 3'PFS UGC (mixed)
RNA 1: CACCCGUGCAAAAAUGCAGGGGUCUAAAACUGAGCGGAUAACCUCUCUAUGG
RNA 2: GGGAAUGGAUCCACAUCUACGAAUUCGUACCAUAGAGAGGUUAUCCGCUCAUGCAGAUCGGAAGAGCACACGU
B14: target 1 MT 5'PFS CCU 3'PFS ACU (mixed)
RNA 1: CACCCGUGCAAAAAUGCAGGGGUCUAAAACUGAGCGGAUAACCUCUCUAUGG
RNA 2: GGGAAUGGAUCCACAUCUACGAAUUCCCUCCAUAGAGAGGUUAUCCGCUCAACUAGAUCGGAAGAGCACACGU
B15: target 1 MT 5'PFS ACA 3'PFS UUA (mixed)
RNA 1: CACCCGUGCAAAAAUGCAGGGGUCUAAAACUGAGCGGAUAACCUCUCUAUGG
RNA 2: GGGAAUGGAUCCACAUCUACGAAUUCACACCAUAGAGAGGUUAUCCGCUCAUUAAGAUCGGAAGAGCACACGU
B16: target 1 MT 5'PFS GCA 3'PFS UGA (mixed)
RNA 1: CACCCGUGCAAAAAUGCAGGGGUCUAAAACUGAGCGGAUAACCUCUCUAUGG
RNA 2: GGGAAUGGAUCCACAUCUACGAAUUCGCACCAUAGAGAGGUUAUCCGCUCAUGAAGAUCGGAAGAGCACACGU
B17: target 1 MT 5'PFS AGG 3'PFS AGC (mixed)
RNA 1: CACCCGUGCAAAAAUGCAGGGGUCUAAAACUGAGCGGAUAACCUCUCUAUGG
RNA 2: GGGAAUGGAUCCACAUCUACGAAUUCAGGCCAUAGAGAGGUUAUCCGCUCAAGCAGAUCGGAAGAGCACACGU
B18: target 1 U10G,U19C (mixed)
RNA 1: CACCCGUGCAAAAAUGCAGGGGUCUAAAACUGAGCGGAUAACCUCUCUAUGG
RNA 2: GGGAAUGGAUCCACAUCUACGAAUUCGUACCACAGAGAGGUGAUCCGCUCACCGAGAUCGGAAGAGCACACGU
B19: target 1 insU 3' of 22,insC 3' of 22 (mixed)
RNA 1: CACCCGUGCAAAAAUGCAGGGGUCUAAAACUGAGCGGAUAACCUCUCUAUGG
RNA 2: GGGAAUGGAUCCACAUCUACGAAUUCGUACUCCAUAGAGAGGUUAUCCGCUCACCGAGAUCGGAAGAGCACACGU
B20: target 1 MT 5'PFS AGG 3'PFS AGA (mixed)
RNA 1: CACCCGUGCAAAAAUGCAGGGGUCUAAAACUGAGCGGAUAACCUCUCUAUGG
RNA 2: GGGAAUGGAUCCACAUCUACGAAUUCAGGCCAUAGAGAGGUUAUCCGCUCAAGAAGAUCGGAAGAGCACACGU
B21: target 1 MT 5'PFS AAG 3'PFS UGC (mixed)
RNA 1: CACCCGUGCAAAAAUGCAGGGGUCUAAAACUGAGCGGAUAACCUCUCUAUGG
RNA 2: GGGAAUGGAUCCACAUCUACGAAUUCAAGCCAUAGAGAGGUUAUCCGCUCAUGCAGAUCGGAAGAGCACACGU
B22: target 1 MT 5'PFS AGA 3'PFS AUC (mixed)
RNA 1: CACCCGUGCAAAAAUGCAGGGGUCUAAAACUGAGCGGAUAACCUCUCUAUGG
RNA 2: GGGAAUGGAUCCACAUCUACGAAUUCAGACCAUAGAGAGGUUAUCCGCUCAAUCAGAUCGGAAGAGCACACGU
B23: target 1 MT 5'PFS UGU 3'PFS AUA (mixed)
RNA 1: CACCCGUGCAAAAAUGCAGGGGUCUAAAACUGAGCGGAUAACCUCUCUAUGG
RNA 2: GGGAAUGGAUCCACAUCUACGAAUUCUGUCCAUAGAGAGGUUAUCCGCUCAAUAAGAUCGGAAGAGCACACGU
B24: target 1 MT 5'PFS ACA 3'PFS UUU (mixed)
RNA 1: CACCCGUGCAAAAAUGCAGGGGUCUAAAACUGAGCGGAUAACCUCUCUAUGG
RNA 2: GGGAAUGGAUCCACAUCUACGAAUUCACACCAUAGAGAGGUUAUCCGCUCAUUUAGAUCGGAAGAGCACACGU
B25: target 1 MT 5'PFS CUU 3'PFS CUC (mixed)
RNA 1: CACCCGUGCAAAAAUGCAGGGGUCUAAAACUGAGCGGAUAACCUCUCUAUGG
RNA 2: GGGAAUGGAUCCACAUCUACGAAUUCCUUCCAUAGAGAGGUUAUCCGCUCACUCAGAUCGGAAGAGCACACGU
B26: target 1 A9U,U11A (mixed)
RNA 1: CACCCGUGCAAAAAUGCAGGGGUCUAAAACUGAGCGGAUAACCUCUCUAUGG
RNA 2: GGGAAUGGAUCCACAUCUACGAAUUCGUACCAUAGAGAGGAUUUCCGCUCACCGAGAUCGGAAGAGCACACGU
B27: target 1 MT 5'PFS AGA 3'PFS AUA (mixed)
RNA 1: CACCCGUGCAAAAAUGCAGGGGUCUAAAACUGAGCGGAUAACCUCUCUAUGG
RNA 2: GGGAAUGGAUCCACAUCUACGAAUUCAGACCAUAGAGAGGUUAUCCGCUCAAUAAGAUCGGAAGAGCACACGU
B28: target 1 MT 5'PFS GCA 3'PFS UGC (mixed)
RNA 1: CACCCGUGCAAAAAUGCAGGGGUCUAAAACUGAGCGGAUAACCUCUCUAUGG
RNA 2: GGGAAUGGAUCCACAUCUACGAAUUCGCACCAUAGAGAGGUUAUCCGCUCAUGCAGAUCGGAAGAGCACACGU

These binders were tested against T1, EsCas13d, nuclease-dead (assay: crRNA (strand 1, pre-loaded); Mg2+; 40 mM Tris-HCl pH 7.5, 150 mM NaCl, 6 mM MgCl2, 1 mM DTT, 0.1% Tween-20, 0.2 mg/ml BSA; 25 C; 10 min per concentration, then washed). Settings: tags: His6-TwinStrep-SUMO cleaved; N-terminal SNAP kept (SNAP-Surface 488); label: 3' end held by stalled T7 RNA polymerase.

Q: B1 was tested. Which Kd did it give?
A: Its Kd is 11.2 ± 0.65 nM.

Q: With B2 as the binder, how does the Kd read?
A: The Kd was 44.5 ± 18.5 nM.

Q: B3 was tested. Which Kd did it give?
A: Its Kd is 39 ± 13.5 nM.

Q: B4 was tested. Which Kd did it give?
A: Its Kd is 12.7 ± 4.2 nM.

Q: Which Kd does the source give for B5 here?
A: Its Kd is 29.5 ± 12.5 nM.

Q: B6 was tested. Which Kd did it give?
A: Its Kd is 35.5 ± 10.5 nM.

Q: How did the Kd turn out when B7 was run?
A: Its Kd is 64.5 ± 27.5 nM.

Q: B8 was tested. Which Kd did it give?
A: Its Kd is 41 ± 19 nM.

Q: For B9, which Kd is on record?
A: Its Kd is roughly 110 nM.

Q: Which Kd does the source give for B10 here?
A: Its Kd is 52 ± 14 nM.

Q: B11 was tested. Which Kd did it give?
A: Its Kd is 11.6 ± 0.5 nM.

Q: Which Kd does the source give for B12 here?
A: The Kd was 21 ± 6 nM.

Q: For B13, which Kd is on record?
A: The Kd was 5.68 ± 0.46 nM.

Q: B14 was tested. Which Kd did it give?
A: Its Kd is 16.5 ± 5.5 nM.

Q: With B15 as the binder, how does the Kd read?
A: The Kd was 8.85 ± 2.9 nM.

Q: B16 was tested. Which Kd did it give?
A: Its Kd is 16.4 ± 2.25 nM.

Q: B17 was tested. Which Kd did it give?
A: The Kd was roughly 52 nM.

Q: How did the Kd turn out when B18 was run?
A: Its Kd is 48 ± 8 nM.

Q: With B19 as the binder, how does the Kd read?
A: The Kd was 31.6 ± 1.2 nM.

Q: With B20 as the binder, how does the Kd read?
A: Its Kd is 37.5 ± 8.5 nM.

Q: How did the Kd turn out when B21 was run?
A: The Kd was 51.5 ± 25 nM.

Q: With B22 as the binder, how does the Kd read?
A: Its Kd is 49 ± 17 nM.

Q: With B23 as the binder, how does the Kd read?
A: The Kd was 62.5 ± 23 nM.

Q: How did the Kd turn out when B24 was run?
A: Its Kd is 5.35 ± 1.15 nM.

Q: With B25 as the binder, how does the Kd read?
A: Its Kd is roughly 15 nM.

Q: With B26 as the binder, how does the Kd read?
A: The Kd was 23.4 ± 1.1 nM.

Q: How did the Kd turn out when B27 was run?
A: Its Kd is 45 ± 15 nM.

Q: Which Kd does the source give for B28 here?
A: Its Kd is 15.8 ± 2.95 nM.
